Experimental data: patent US8247194 (Amgen, dated 2012)
Numbering of substitutions follows the chain as printed. Each block holds one binder with its values, some of them ahead of it.

Assays:
[1] = target: T1, recombinant human GM-CSF (rhGM-CSF), produced in E. coli (human, UniProt P04141 18-144); assay: SPR off-rate ranking, purified periplasmic preparation over immobilized rhGM-CSF; clone listed among the sequenced hits in the 2nd table
T1 construct: The ELISA of 2.5.2 and the TF-1 proliferation assays say only rhGM-CSF without naming the preparation; they are assigned to this molecule; also called human GM-CSF antigen; recombinant human granulocyte macrophage colony stimulating factor
T1 sequence (P04141 18-144 limits assumed): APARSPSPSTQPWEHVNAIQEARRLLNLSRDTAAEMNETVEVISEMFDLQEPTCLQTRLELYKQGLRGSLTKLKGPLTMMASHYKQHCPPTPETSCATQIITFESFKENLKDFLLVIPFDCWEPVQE
Method: FIG. 9: Binding analysis (kinetic off rate) of SCA hits derived from the method of the invention, as determined by SPR. Binding kinetics of the SCA hits were measured injecting 10 µL of purified periplasmic preparation ("PPP") protein solution with a flow rate of 5 µL/min at 25° C. onto the sensor chip. The data were monitored in all four flow cells. Background association with the unmodified CM5 chip surface (FC1) was substracted from the binding to the immobilised rhGM-CSF (FC2) allowing analysis of the specific binding signal (FC2-FC1 response difference). The dissociation rate was monitored for 100 sec (FIG. 4). The amplitude of the binding peak (RUmax) directly correlates to the protein concentration in the injected sample. The kinetic association rate constant (ka) is concentration dependent and can—due to varying concentrations of the PPP protein solution—not be used for the qualitative ranking of the purified PPP SCA material. The kinetic dissociation rate constant (kd) is protein concentration independent and characteristic for the binding strength of the respective SCA hit. The SCA hits with the best apparent off rate were identified.

[2] = target: T1, recombinant human GM-CSF (rhGM-CSF), …; assay: cell-based or functional assay

IC50 (read off the curve), TF-1 proliferation, C33ON-32 dimer [2]: ~0.1 µg/mL
IC50 (read off the curve), TF-1 proliferation, C33ON-32 mono [2]: ~0.2 µg/mL
B16: half-human SCA C33oN-32 (scFv)
scFv: ELQLVEQSGAALVKPGDSVKMSCKASGYPFTDYIVHWVKQSHGKSLDWIGYINPYSGDTKFNEKFKSKATLTVDKSSSTAYMEFSRLTSEDSAIYYCARSGLIAVYFDYWGQGTTVTVSSGGGGSGGGGSGGGGSELVLTQSPEFQSVAPKEKVTITCRASQSIGSSLHWYQQKPDQSPKLLIKFASQSFSGVPSRFGGSGSGTNFTLTINSLEAEDAATYYCQQSSTLPPTFGQGTKLEIKTGDYKDDDDKHHHHHH

binding result [1]: binds
B17: half-human SCA B32oN-73 (scFv)
scFv: ELQLVEQSGAALVKPGDSVKMSCKASGYPFTDYIVHWVKQSHGKSLDWIGYINPYSGDTKFNEKFKSKATLTVDKSSSTAYMEFSRLTSEDSAIYYCARSGLIAVYFDYWGQGTTVTVSSGGGGSGGGGSGGGGSELVLTQSPGFQSVTPKEKVTITCRASQSIGSSLHWYQQKPDQSPKLLIKFASQSISGVPSRFSGTGSGTDFTLTISSLQPEDIATYYCQQSYSTPWTFGQGTKLEIKTGDYKDDDDKHHHHHH
notes: Expressed from pComb3H5BFlag/His

binding result [1]: binds
B18: half-human SCA B32oN-49 (scFv)
scFv: B17 scFv with G144D, I190L, T200S, I218F, S228T, W231P, Q235G, L239V
notes: as for B17

binding result [1]: binds
B19: half-human SCA C32oN-34 (scFv)
scFv: ELQLVEQSGAALVKPGDSVKMSCKASGYPFTDYIVHWVKQSHGKSLDWIGYINPYSGDTKFNEKFKSKATLTVDKSSSTAYMEFSRLTSEDSAIYYCARSGLIAVYFDYWGQGTTVTVSSGGGGSGGGGSGGGGSELVLTQSPDFQSVTPKERVTITCRASQTIGNNLHWYQQKPGQSPKLLIKFASQSFSGVPSRFSGSGSGTDFTLTINSLEAEDAATYYCQQSYSTPWTFGQGTKVEIKTGDYKDDDDKHHHHHH
notes: as for B17

binding result [1]: binds
B20: half-human SCA C32oN-92 (scFv)
scFv: B16 scFv with E144D, A149T, F190L, G198S, N205D, T207A
notes: as for B17

binding result [1]: binds
B21: half-human SCA B33oN-8 (scFv)
scFv: B17 scFv with H169N, S178P, P194S, I218V, W231P
notes: as for B17

binding result [1]: binds
B22: half-human SCA B33oN-35 (scFv)
scFv: ELQLVEQSGAALVKPGDSVKMSCKASGYPFTDYIVHWVKQSHGKSLDWIGYINPYSGDTKFNEKFKSKATLTVDKSSSTAYMEFSRLTSEDSAIYYCARSGLIAVYFDYWGQGTTVTVSSGGGGSGGGGSGGGGSELQMTQSPSSLSASVGDRVTITCRASQSIGSSLHWYQQKPDQSPKLLIKFASQSFSGVPSRFGGSGSGTNFTLTINSLEAEDAATYYCQQSSTLPPTFGQGTKLEIKTGDYKDDDDKHHHHHH
notes: as for B17

Further lines, the binder ahead of its results:

B1: half-human SCA B32oN-33 (scFv)
scFv: ELQLVEQSGAALVKPGDSVKMSCKASGYPFTDYIVHWVKQSHGKSLDWIGYINPYSGDTKFNEKFKSKATLTVDKSSSTAYMEFSRLTSEDSAIYYCARSGLIAVYFDYWGQGTTVTVSSGGGGSGGGGSGGGGSELVMTQSPATLSLSPGERATLSCRASQSVRTYLAWYQQKPGQAPRLLIYAASHRATGIPARFSGSGSGTDFTLTISRLEPEDFAVYYCQQYGSSPPTFGQGTKVEIKTGDYKDDDDKHHHHHH
notes: as for B17
binding result [1]: binds

B2: half-human SCA C32oN-89 (scFv)
scFv: ELQLVEQSGAALVKPGDSVKMSCKASGYPFTDYIVHWVKQSHGKSLDWIGYINPYSGDTKFNEKFKSKATLTVDKSSSTAYMEFSRLTSEDSAIYYCARSGLIAVYFDYWGQGTTVTVSSGGGGSGGGGSGGGGSELVLTQSPSSLSASVGDRVTITCRASQSISRYLNWYQQKPGKPPKLLIFVASNLQTGVPSRFSGSGSGTDFTLTISSLEPEDFAVYYCQQRSNWPLTFGGGTKVDIKTGDYKDDDDKHHHHHH
notes: as for B17
binding result [1]: binds

B3: half-human SCA B32oN-10 (scFv)
scFv: ELQLVEQSGAALVKPGDSVKMSCKASGYPFTDYIVHWVKQSHGKSLDWIGYINPYSGDTKFNEKFKSKATLTVDKSSSTAYMEFSRLTSEDSAIYYCARSGLIAVYFDYWGQGTTVTVSSGGGGSGGGGSGGGGSELQMTQSPSSLSASVGDRVTITCRTSQTISSLLNWYQQKPGKAPKLLIYAASNLQSGVPSRFSGSGSGTDFTLTISGLQPEDFSTYFCQQSYSFPRTFGQGTKVDIKTGDYKDDDDKHHHHHH
notes: as for B17
binding result [1]: binds

B4: half-human SCA B33oN-22 (scFv)
scFv: B19 scFv with R153K, T163S, N166S, N167S, G176D, W231P
notes: as for B17
binding result [1]: binds

B5: half-human SCA B32oN-67 (scFv)
scFv: B17 scFv with S198T, T200S
notes: as for B17
binding result [1]: binds

B6: half-human SCA B33oN-21 (scFv)
scFv: B19 scFv with R153K, T163S, N166S, N167S, G176D, F190L, V239L
notes: as for B17
binding result [1]: binds

B7: half-human SCA B32oN-48 (scFv)
scFv: B16 scFv with E144G, A149T, S178P, F190I, G198S, L239V
notes: as for B17
binding result [1]: binds

B8: half-human SCA C33oN-49 (scFv)
scFv: B19 scFv with R153K, T163S, N166S, N167S, G176D, V239L
notes: as for B17
binding result [1]: binds

B9: half-human SCA B33oN-69 (scFv)
scFv: B16 scFv with E144D, A149T, S166T, S167G, G198S, N205D, S212G
notes: as for B17
binding result [1]: binds

B10: half-human SCA B33oN-115 (scFv)
scFv: B17 scFv with G144D, I190L, T200S, I218F, W231S, Q235P, L239V
notes: as for B17
binding result [1]: binds

B11: half-human SCA C32oN-10 (scFv)
scFv: B19 scFv with R153K, T163S, N166S, N167S, G176D, F190L, A218F, W231S, Q235P
notes: as for B17
binding result [1]: binds

B12: half-human SCA C32oN-21 (scFv)
scFv: B16 scFv with E144G, A149T, F190I, G198S, S200T, N205D
notes: as for B17
binding result [1]: binds

B13: half-human SCA B33oN-66 (scFv)
scFv: B19 scFv with R153K, T163S, N166S, G176D, T207S, W231P, K238R, V239L
notes: as for B17
binding result [1]: binds

B14: half-human SCA C32oN-46 (scFv)
scFv: B17 scFv with G144D, I190L, T200S, I218F, W231P, L239V
notes: as for B17
binding result [1]: binds

B15: half-human SCA B32oN-44 (scFv)
scFv: B17 scFv with G144D, S178P, G192R, S211N, Q214E, P215A, I218A, Y227F, T229F, W231Y
notes: as for B17
binding result [1]: binds
